Reference: paper PMC2191386 (The Journal of Experimental Medicine, 1994)

Target: T1, LFA-3, purified (human (endogenous in JY), UniProt P19256 29-250)
T1 sequence (looked up): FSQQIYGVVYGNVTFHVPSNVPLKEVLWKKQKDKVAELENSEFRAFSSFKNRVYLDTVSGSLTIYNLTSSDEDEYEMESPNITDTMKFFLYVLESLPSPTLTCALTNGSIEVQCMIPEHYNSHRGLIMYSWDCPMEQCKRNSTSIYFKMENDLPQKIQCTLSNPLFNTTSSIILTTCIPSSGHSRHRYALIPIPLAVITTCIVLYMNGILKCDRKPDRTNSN
Assay: cell adhesion to purified protein

fold increase of cell binding on PMA stimulation: 3 fold
B1: CD2 on SKW3 cells (receptor, human (endogenous in SKW3), UniProt P06729 25-351, looked up)
chain: KEITNALETWGALGQDINLDIPSFQMSDDIDDIKWEKTSDKKKIAQFRKEKETFKEKDTYKLFKNGTLKIKHLKTDDQDIYKVSIYDTKGKNVLEKIFDLKIQERVSKPKISWTCINTTLTCEVMNGTDPELNLYQDGKHLKLSQRVITHKWTTSLSAKFKCTAGNKVSKESSVEPVSCPEKGLDIYLIIGICGGGSLLMVFVALLVFYITKRKKQRSRRNDEELETRAHRVATEERGRKPHQIPASTPQNPATSQHPPPPPGHRSQAPSHRPPPPGHRVQHQPQKRPPAPSGTQVHQQKGPPLPRPRVQPKPPHGAAENSLSPSSN
